The results in this text go back to patent US20220073621A1 (EUCURE BEIJING BIOPHARMA, published 2022).

B1: 6A11-H2K3-IgG1 (antibody, V domains shown)
VH: EVQLVESGGGLVQPGGSLRLSCAASGFTFSSFGMHWVRQAPGKGLEWVSYISSGSNTIYYADTVKGRFTISRDNAKNSLYLQMNSLRAEDTAVYYCTRNGYDGWYAMDYWGQGTTVTVSS
VL: EIVLTQSPATLSASPGERATLSCSASSSVSYIHWFQQKPGQSPRRWIYDTSKLASGIPARFSGSGSGTDYTLTISSMEPEDFATYYCQQWSTNPFTFGQGTKLEIKR
B2: 3F2-H2K2-IgG1 (antibody, V domains shown)
VH: DVQLQESGPGLVKPSETLSLTCTVSGYSITSGYNWHWIRQFPGNGLEWMGYIHHSSITNYNPSLKSRITISRDTSKNQFSLKLSSVTAADTATFYCAREGYDYDWFAYWGQGTLVTVSS
VL: DIVLTQSPDFQSVTPKEKVTLSCRASQSISNNLHWYQQKPDESPKLLIKYASQSISGIPSRFSGSGSGTDFTLTINSVEAEDFAMYFCQQSKSWPFTFGQGTRLEIK
B3: 3F2-H3K3-IgG1 (antibody, V domains shown)
VH: DVQLQESGPGLVKPSETLSLTCTVSGYSITSGYNWHWIRQFPGNGLEWMGYIHHSSITNYNPSLKSRITISRDTSKNQFSLKLSSVTAEDTATFYCAREGYDYDWFAYWGQGTLVTVSS
VL: DIVLTQSPDTQSVTPKESVTLSCRASQSISNNLHWYQQKSHESPKLLIKYASQSISGIPSRFSGSGSGTDFTLTINSVEAEDFAMYFCQQSKSWPFTFGQGTRLEIK
B4: 3F2-H2K3-IgG1 (antibody, V domains shown)
VH: DVQLQESGPGLVKPSETLSLTCTVSGYSITSGYNWHWIRQFPGNGLEWMGYIHHSSITNYNPSLKSRITISRDTSKNQFSLKLSSVTAADTATFYCAREGYDYDWFAYWGQGTLVTVSS
VL: DIVLTQSPDTQSVTPKESVTLSCRASQSISNNLHWYQQKSHESPKLLIKYASQSISGIPSRFSGSGSGTDFTLTINSVEAEDFAMYFCQQSKSWPFTFGQGTRLEIK
B5: 3F2-H3K1-IgG1 (antibody, V domains shown)
VH: DVQLQESGPGLVKPSETLSLTCTVSGYSITSGYNWHWIRQFPGNGLEWMGYIHHSSITNYNPSLKSRITISRDTSKNQFSLKLSSVTAEDTATFYCAREGYDYDWFAYWGQGTLVTVSS
VL: DIVLTQSPDFQSVTPKEKVTITCRASQSISNNLHWYQQKPDESPKLLIKYASQSISGIPSRFSGSGSGTDFTLTINSVEAEDFAMYFCQQSKSWPFTFGQGTRLEIK
B6: 3F2-H4K3-IgG1 (antibody, V domains shown)
VH: DVQLQESGPGLVKPSETLSLTCTVSGYSITSGYNWHWIRQFPGNKLEWMGYIHHSSITNYNPSLKSRITISRDTSKNQFFLQLSSVTAEDTATFYCAREGYDYDWFAYWGQGTLVTVSS
VL: DIVLTQSPDTQSVTPKESVTLSCRASQSISNNLHWYQQKSHESPKLLIKYASQSISGIPSRFSGSGSGTDFTLTINSVEAEDFAMYFCQQSKSWPFTFGQGTRLEIK
B7: 3F2-H3K2-IgG1 (antibody, V domains shown)
VH: DVQLQESGPGLVKPSETLSLTCTVSGYSITSGYNWHWIRQFPGNGLEWMGYIHHSSITNYNPSLKSRITISRDTSKNQFSLKLSSVTAEDTATFYCAREGYDYDWFAYWGQGTLVTVSS
VL: DIVLTQSPDFQSVTPKEKVTLSCRASQSISNNLHWYQQKPDESPKLLIKYASQSISGIPSRFSGSGSGTDFTLTINSVEAEDFAMYFCQQSKSWPFTFGQGTRLEIK
B8: 3F2-H4K2-IgG1 (antibody, V domains shown)
VH: DVQLQESGPGLVKPSETLSLTCTVSGYSITSGYNWHWIRQFPGNKLEWMGYIHHSSITNYNPSLKSRITISRDTSKNQFFLQLSSVTAEDTATFYCAREGYDYDWFAYWGQGTLVTVSS
VL: DIVLTQSPDFQSVTPKEKVTLSCRASQSISNNLHWYQQKPDESPKLLIKYASQSISGIPSRFSGSGSGTDFTLTINSVEAEDFAMYFCQQSKSWPFTFGQGTRLEIK
B9: 3F2-H4K1-IgG1 (antibody, V domains shown)
VH: DVQLQESGPGLVKPSETLSLTCTVSGYSITSGYNWHWIRQFPGNKLEWMGYIHHSSITNYNPSLKSRITISRDTSKNQFFLQLSSVTAEDTATFYCAREGYDYDWFAYWGQGTLVTVSS
VL: DIVLTQSPDFQSVTPKEKVTITCRASQSISNNLHWYQQKPDESPKLLIKYASQSISGIPSRFSGSGSGTDFTLTINSVEAEDFAMYFCQQSKSWPFTFGQGTRLEIK
B10: 3F2-H2K1-IgG1 (antibody, V domains shown)
VH: DVQLQESGPGLVKPSETLSLTCTVSGYSITSGYNWHWIRQFPGNGLEWMGYIHHSSITNYNPSLKSRITISRDTSKNQFSLKLSSVTAADTATFYCAREGYDYDWFAYWGQGTLVTVSS
VL: DIVLTQSPDFQSVTPKEKVTITCRASQSISNNLHWYQQKPDESPKLLIKYASQSISGIPSRFSGSGSGTDFTLTINSVEAEDFAMYFCQQSKSWPFTFGQGTRLEIK
B11: 3F2-H1K3-IgG1 (antibody, V domains shown)
VH: QVQLQESGPGLVKPSETLSLTCTVSGYSITSGYNWHWIRQFPGNGLEWMGYIHHSSITNYNPSLKSRITISRDTSKNQFSLKLSSVTAADTATYYCAREGYDYDWFAYWGQGTLVTVSS
VL: DIVLTQSPDTQSVTPKESVTLSCRASQSISNNLHWYQQKSHESPKLLIKYASQSISGIPSRFSGSGSGTDFTLTINSVEAEDFAMYFCQQSKSWPFTFGQGTRLEIK
B12: 3F2-H1K2-IgG1 (antibody, V domains shown)
VH: QVQLQESGPGLVKPSETLSLTCTVSGYSITSGYNWHWIRQFPGNGLEWMGYIHHSSITNYNPSLKSRITISRDTSKNQFSLKLSSVTAADTATYYCAREGYDYDWFAYWGQGTLVTVSS
VL: DIVLTQSPDFQSVTPKEKVTLSCRASQSISNNLHWYQQKPDESPKLLIKYASQSISGIPSRFSGSGSGTDFTLTINSVEAEDFAMYFCQQSKSWPFTFGQGTRLEIK
B13: 3F2-H1K1-IgG1 (antibody, V domains shown)
VH: QVQLQESGPGLVKPSETLSLTCTVSGYSITSGYNWHWIRQFPGNGLEWMGYIHHSSITNYNPSLKSRITISRDTSKNQFSLKLSSVTAADTATYYCAREGYDYDWFAYWGQGTLVTVSS
VL: DIVLTQSPDFQSVTPKEKVTITCRASQSISNNLHWYQQKPDESPKLLIKYASQSISGIPSRFSGSGSGTDFTLTINSVEAEDFAMYFCQQSKSWPFTFGQGTRLEIK
B14: 23-2A6-mHvKv-IgG1-N297A (antibody, V domains shown)
VH: QVQLKESGPGLVAPSQSLSITCTVSGFSLTSYDISWIRQPPGKGLEWLGAIWTGGGTNYNSAFMSRLSISKDNSKSQVFLKMNSLQTDDTAIYYCVRDPYYYAMDYWGQGTSVTVSS
VL: DIQMNQSPSSLSASLGDTITITCHASQNLNVWLSWYQQKPGNIPKLLIYKASNLHTGVPSRFSGSGSGTGFTLTISSLQPEDIATYYCQQGQSYPRTFGGGTKLEIK
B15: 17-7E4-mHvKv-IgG1 (antibody, V domains shown)
VH: QVQLQQSGAELVRPGVSVKISCKGSGFKFTDYAIHWVKQSHAKSLEWIGVISIYYGEASYNQKFKDKATLTVDTSSSTAYMELARLTSEDSAIYYCAREDYYGSSSYFDYWGQGTALTVSS
VL: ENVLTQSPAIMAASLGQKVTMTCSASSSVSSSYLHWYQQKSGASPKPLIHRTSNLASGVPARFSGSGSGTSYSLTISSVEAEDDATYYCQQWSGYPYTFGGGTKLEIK
B16: 07-6A11-mHvKv-IgG1 (antibody, V domains shown)
VH: DVQLVESGGGLVQPGGSRKLSCAASGFTFSSFGMHWVRQAPEKGLEWVAYISSGSNTIYYADTVKGRFTISRDNPKNTLFLQMTSLRSEDTAIYYCTRNGYDGWYAMDYWGQGTSVTVSS
VL: QIVLTQSPAIMSASPGEKVTMTCSASSSVSYIHWFQQKSGTSPKRWIYDTSKLASGVPARFSGRGSGTSYSLTISSMEAEDAATYYCQQWSTNPFTFGSGTKLEIK
B17: 33-10C9-mHvKv-IgG1-N297A (antibody, V domains shown)
VH: QVQLQQPGAELVKPGSSVKLSCKASGYTFTTYYIYWVKQRPGQGLEWIGGINPYNGGTSFNEKFESKATLTVDISSSTAFMQLSSLTSEDSAVYYCTRDGNYVDYWGQGTTLTVSS
VL: QIVLTQSPAIMSASPGEKVTITCSASSTVSYVHWLQQKPDTSPKLWIYSTSNLASGVPARFSGSGSGTSYSLTISRMEAEDAATYYCQQRSSSPPTFGSGTKLEIK
B18: 08-3F2-mHvKv-IgG1 (antibody, V domains shown)
VH: DVQLQESGPDLVKPSQTLSLTCTVTGYSITSGYNWHWIRQFPGNKLEWMGYIHHSSITNYNPSLKSRISITRDTSKNQFFLQLSSVTTEDTATFYCAREGYDYDWFAYWGQGTLVTVSA
VL: DIVLAQSPATLSVTPGDSVSLSCRASQSISNNLHWYQQKSHESPRLLIKYASQSISGIPSRFSGSGSGTDFTLSINSVETEDFGMYFCQQSKSWPFTFGSGTRLEIK

As a reminder, the Kd is the concentration at which binding is half-saturated. A low value points to tighter binding. One may read the koff as the first-order rate constant of dissociation. Read a low koff as slow dissociation. In general, kon refers to the rate constant with which the complex forms. Read a high kon as faster complex formation.

The target in this assay is T1, hPD-L1-His (human, UniProt Q9NZQ7 19-238).
T1 construct: Bought protein; also called hPD-L1-His (manufactured by Edison); not shown: His tag
T1 sequence (Q9NZQ7 19-238 limits assumed): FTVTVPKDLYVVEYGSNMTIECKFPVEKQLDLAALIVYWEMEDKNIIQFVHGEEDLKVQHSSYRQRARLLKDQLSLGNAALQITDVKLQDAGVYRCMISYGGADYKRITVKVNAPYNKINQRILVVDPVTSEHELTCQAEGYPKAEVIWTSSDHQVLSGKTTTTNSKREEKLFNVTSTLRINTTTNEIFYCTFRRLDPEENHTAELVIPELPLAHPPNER
The assay can be described thus: SPR (Biacore T200), antibody on Protein A chip, hPD-L1-His injected, 1:1 fit. Here is the method: Subsequently, the binding affinity of the anti-PD-L1 chimeric antibody, humanized antibody, and marketed control antibody to hPD-L1-His (manufactured by Edison) were determined by surface plasmon resonance (Biacore T200 biosensor, Biacore, INC, Piscataway N.J.) equipped with pre-immobilized Protein A sensor chips.
The detection results were read after the chip was regenerated with pH 2.0 glycine (30 μl/min, 10-20 s). Kinetic association rates (kon) and dissociation rates (koff) were obtained simultaneously by fitting the data globally to a 1:1 Langmuir binding model (Karlsson, R. Roos, H. Fagerstam, L. Petersson, B., 1994. Methods Enzymology 6. 99-110) using Biacore T200 Evaluation Software 3.0. Affinities were deduced from the quotient of the kinetic rate constants (KD=koff/kon).
B1 displayed a dissociation constant (Kd) of 8.07 nM, a koff of 0.0013 s⁻¹ and a kon of 162000 M⁻¹ s⁻¹.
The molecule B2 yielded a Kd of 0.81 nM, an off-rate (koff) of 0.000946 s⁻¹ and a kon of 1.17e+06 M⁻¹ s⁻¹.
In the same order, the values of B3 are 0.625 nM, 0.000827 s⁻¹ and 1.32e+06 M⁻¹ s⁻¹.
Molecule B4 registered a dissociation constant Kd of 0.758 nM, an off-rate (koff) of 0.000881 s⁻¹ and a kon of 1.16e+06 M⁻¹ s⁻¹.
For B5, in that order: 0.699 nM, 0.000793 s⁻¹ and 1.13e+06 M⁻¹ s⁻¹.
For the molecule B6, binding was characterised by a dissociation constant (Kd) of 0.502 nM, the koff was determined as 0.000696 s⁻¹ and the on-rate (kon) stood at 1.39e+06 M⁻¹ s⁻¹.
For B7, in that order: 0.623 nM, 0.000753 s⁻¹ and 1.21e+06 M⁻¹ s⁻¹.
As to B8, the equilibrium dissociation constant (Kd) turned out to be 0.475 nM, the koff was determined as 0.000617 s⁻¹ and the kon was determined as 1.3e+06 M⁻¹ s⁻¹.
In the same order, the values of B9 are 0.471 nM, 0.000626 s⁻¹ and 1.33e+06 M⁻¹ s⁻¹.
In the same order, the values of B10 are 0.7 nM, 0.000792 s⁻¹ and 1.13e+06 M⁻¹ s⁻¹.
With B11, the Kd was determined as 0.805 nM, the koff was 0.000874 s⁻¹ and the association rate constant (kon) was 1.09e+06 M⁻¹ s⁻¹.
For B12, in that order: 0.69 nM, 0.000732 s⁻¹ and 1.06e+06 M⁻¹ s⁻¹.
In the case of B13, the affinity, expressed as Kd, was 0.787 nM; the koff was 0.000772 s⁻¹; the association rate constant (kon) turned out to be 981000 M⁻¹ s⁻¹.
In turn, B14 gave a dissociation constant (Kd) of 4.64 nM, a koff of 0.00266 s⁻¹ and an association rate constant (kon) of 573000 M⁻¹ s⁻¹.
Molecule B15 came in with a Kd of 5.33 nM, a dissociation rate constant (koff) of 0.000805 s⁻¹ and an association rate constant (kon) of 151000 M⁻¹ s⁻¹.
In the same order, the values of B16 are 3.57 nM, 0.0009 s⁻¹ and 252000 M⁻¹ s⁻¹.
In the same order, the values of B17 are 1.6 nM, 0.000196 s⁻¹ and 122000 M⁻¹ s⁻¹.
Molecule B18 showed a Kd of 0.266 nM, a koff of 0.00043 s⁻¹ and a kon of 1.62e+06 M⁻¹ s⁻¹.
